{
  "source": "paper PMC4007306",
  "about": "(Archives of biochemistry and biophysics, 2013)",
  "key": {"[1]": {"target": "T1, AdoMet synthetase (MAT, MetK) (Pseudomonas aeruginosa, UniProt Q9I5Z0)", "T1 sequence (Q9I5Z0 1-396)": "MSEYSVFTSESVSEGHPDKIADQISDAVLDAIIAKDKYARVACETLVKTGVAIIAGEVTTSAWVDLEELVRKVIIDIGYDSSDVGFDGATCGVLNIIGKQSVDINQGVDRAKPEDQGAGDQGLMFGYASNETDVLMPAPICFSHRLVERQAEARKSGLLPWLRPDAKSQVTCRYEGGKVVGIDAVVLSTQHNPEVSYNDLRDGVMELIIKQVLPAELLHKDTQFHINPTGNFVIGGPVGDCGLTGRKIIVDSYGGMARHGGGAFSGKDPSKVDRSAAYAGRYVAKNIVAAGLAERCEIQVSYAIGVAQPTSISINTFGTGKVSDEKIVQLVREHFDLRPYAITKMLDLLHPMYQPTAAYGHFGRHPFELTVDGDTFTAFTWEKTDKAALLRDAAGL", "assay": "coupled enzyme assay, Dixon plot", "format": "biochemical"}, "[2]": {"target": "AdoMet synthetase (MAT, MetK)", "assay": "coupled enzyme assay, Dixon plot", "format": "biochemical, Campylobacter jejuni"}, "[3]": {"target": "S-adenosylmethionine synthetase (AdoMet synthetase, MAT) from Neisseria meningitidis WUE2594 (Neisseria meningitidis WUE2594)", "assay": "dynamic light scattering"}, "[4]": {"target": "S-adenosylmethionine synthetase (AdoMet synthetase, MAT) from Neisseria meningitidis WUE2594 (Neisseria meningitidis WUE2594)", "assay": "native gel or EMSA"}, "dynamic light scattering": {"target": "the molecule itself", "assay": "dynamic light scattering"}, "[5]": {"substrate": "CSCC[C@H](N)C(=O)O", "assay": "coupled pyrophosphate enzyme assay, steady-state kinetics", "format": "biochemical, Pseudomonas aeruginosa", "conditions": "MgATP L-methionine binding site of the active site"}, "[6]": {"substrate": "CCOC(=O)[C@@H](N)CCSC", "assay": "coupled pyrophosphate enzyme assay, alternative substrate kinetics", "format": "biochemical, Escherichia coli", "conditions": "MgATP L-methionine binding site"}, "[7]": {"substrate": "COC(=O)[C@@H](N)CCSC", "assay": "coupled pyrophosphate enzyme assay, alternative substrate kinetics", "format": "biochemical, Escherichia coli", "conditions": "MgATP L-methionine binding site"}},
  "data": [
    {"molecule": "NC(=O)SC[C@H](N)C(=O)O", "note": "[S-carbamyl-L-cysteine]", "values": [
      {"measurement": "Ki", "setting": "[1]", "value": "~4", "unit": "mM"}
    ]},
    {"molecule": "CSCC[C@H](N)CC(=O)O", "note": "[β-methionine, (R)-3-amino-5-(methylthio)pentanoic acid]", "values": [
      {"measurement": "Ki", "setting": "[2]", "value": "~7", "unit": "mM"}
    ]},
    {"molecule": "S-adenosylmethionine synthetase (AdoMet synthetase, MAT) from Neisseria meningitidis WUE2594 (enzyme)", "values": [
      {"measurement": "stoichiometry N", "setting": "[3]", "value": 4},
      {"measurement": "stoichiometry N", "setting": "[4]", "value": 4}
    ]},
    {"molecule": "S-adenosylmethionine synthetase (AdoMet synthetase, MAT) from Pseudomonas aeruginosa PA01 (enzyme, UniProt B7V4D3 1-396, looked up) MSEYSVFTSESVSEGHPDKIADQISDAVLDAIIAKDKYARVACETLVKTGVAIIAGEVTTSAWVDLEELVRKVIIDIGYDSSDVGFDGATCGVLNIIGKQSVDINQGVDRAKPEDQGAGDQGLMFGYASNETDVLMPAPICFSHRLVERQAEARKSGLLPWLRPDAKSQVTCRYEGGKVVGIDAVVLSTQHNPEVSYNDLRDGVMELIIKQVLPAELLHKDTQFHINPTGNFVIGGPVGDCGLTGRKIIVDSYGGMARHGGGAFSGKDPSKVDRSAAYAGRYVAKNIVAAGLAERCEIQVSYAIGVAQPTSISINTFGTGKVSDEKIVQLVREHFDLRPYAITKMLDLLHPMYQPTAAYGHFGRHPFELTVDGDTFTAFTWEKTDKAALLRDAAGL", "values": [
      {"measurement": "stoichiometry N", "setting": "dynamic light scattering", "value": 4},
      {"measurement": "Km", "setting": "[5]", "value": "0.040 ± 0.005", "unit": "mM"}
    ]},
    {"molecule": "S-adenosylmethionine synthetase (AdoMet synthetase, MAT) from Campylobacter jejuni 81-176 (enzyme, UniProt Q0P9F8 1-398, looked up) MYLFTSEVVSAGHPDKCADIIADTIVDILLKNDKNSRVASEVFVAGNKVVIGGEVKSNHKLSKADYDNLVKDVLKNIGYDGAGHFSKEQCLHPDEVDVMVFLNEQSPDINQGVDQEDGETGAGDQGIMFGFASCEAEEYMPAAISYARMLCDRVYAYAKANPHELGVDIKTQVTIDYGTKANFENCKPQSIHTIVVSAPCVESMKIEDLRSLVMKLILDSNLPKELFDPNKTRILINPTGKYVNHSSLHDSGLTGRKLIVDSFGGYSPIGGGAQSSKDYTKVDRSGLYAGRWLAKNIVAAGLAKKCIVQLSYAIGVAKPTSVSVDCMGTNTSVNDDVLSDFVMQNFSLTPNWIRDKFHLDKPSKETFLYADVAARGQVGQKDYPWEKLDALEQFKKLL", "values": [
      {"measurement": "stoichiometry N", "setting": "dynamic light scattering", "value": 2}
    ]},
    {"molecule": "AdoMet synthetase (MAT, MetK) (Escherichia coli K-12) (protein) AKHLFTSESVSEGHPDKIADQISDAVLDAILEQDPKARVACETYVKTGMVLVGGEITTSAWVDIEEITRNTVREIGYVHSDMGFDANSCAVLSAIGKQSPDINQGVDRADPLEQGAGDQGLMFGYATNETDVLMPAPITYAHRLVQRQAEVRKNGTLPWLRPDAKSQVTFQYDDGKIVGIDAVVLSTQHSEEIDQKSLQEAVMEEIIKPILPAEWLTSATKFFINPTGRFVIGGPMGDCGLTGRKIIVDTYGGMARHGGGAFSGKDPSKVDRSAAYAARYVAKNIVAAGLADRCEIQVSYAIGVAEPTSIMVETFGTEKVPSEQLTLLVREFFDLRPYGLIQMLDLLHPIYKETAAYGHFGREHFPWEKTDKAQLLRDAAGLK", "values": [
      {"measurement": "Km", "setting": "[6]", "value": "0.12 ± 0.01", "unit": "mM"},
      {"measurement": "Km", "setting": "[7]", "value": "0.17 ± 0.05", "unit": "mM"}
    ]},
    {"molecule": "S-adenosylmethionine synthetase (AdoMet synthetase, MAT) from Escherichia coli K12 (enzyme, UniProt B1XFA4 1-384, looked up) MAKHLFTSESVSEGHPDKIADQISDAVLDAILEQDPKARVACETYVKTGMVLVGGEITTSAWVDIEEITRNTVREIGYVHSDMGFDANSCAVLSAIGKQSPDINQGVDRADPLEQGAGDQGLMFGYATNETDVLMPAPITYAHRLVQRQAEVRKNGTLPWLRPDAKSQVTFQYDDGKIVGIDAVVLSTQHSEEIDQKSLQEAVMEEIIKPILPAEWLTSATKFFINPTGRFVIGGPMGDCGLTGRKIIVDTYGGMARHGGGAFSGKDPSKVDRSAAYAARYVAKNIVAAGLADRCEIQVSYAIGVAEPTSIMVETFGTEKVPSEQLTLLVREFFDLRPYGLIQMLDLLHPIYKETAAYGHFGREHFPWEKTDKAQLLRDAAGLK", "values": [
      {"measurement": "stoichiometry N", "setting": "dynamic light scattering", "value": 4}
    ]}
  ]
}
